Source: the MegaScale stability set (Tsuboyama et al. 2023)

B1: 2M8U (parent)
chain: TKAQVIEAFKVFDRDGNGYVTVDYLRKVLNELGDMMPADEIEEMIYEADPQNSGYVQYETFVGMLFL
B2: EHEE_rd2_0601 (parent)
chain: TYTYKLTDEEASRRAEDEWRNRGYDVRVRNNNGTWEVEVR

Variants of: B1
Assay: folding stability dG (cDNA display proteolysis); higher = more stable
Settings: PBS, room temperature

Folding stability dG [kcal/mol] of substitutions, site by site:
F61: R 1.29; T 1.87; N 1.32; M 2.31; Y 2.17; S 1.33; E 0.86; Q 1.17; K 1.35; P 0.783; G 0.903; H 1.1; I 3.6; A 2.41; D 0.727; L 2.65; C 2.13; V 3.46; W 2.62
T60: F 3.32; I 3.58; E 3.61; L 3.72; P 3.52; M 3.44; Q 3.55; S 3.6; D 3.42; A 3.63; H 3.66; R 3.68; W 3.58; Y 3.43; C 3.43; V 3.31; K 3.72
M64: K 4.14; L 3.74; Y 3.25; C 3.37; W 3.59; S 3.08; H 3.69; T 3.29; R 4.29; V 3.03; F 3.34; N 3.83; G 3.04; P 2.66; D 3.23; A 3.21; I 3.15; E 3.29; Q 3.53
F66: M 2.88; N 2.92; W 3.19; L 2.59; E 2.56; R 2.78; C 2.86; D 2.96; T 2.83; S 2.72; G 2.57; A 2.62; I 2.84; Q 2.55; Y 2.71; H 2.67; P 2.87; K 2.73; V 2.84
L65: M 3.67; Q 1.84; F 3.28; N 2.26; I 3.11; V 2.72; A 2.23; P 1.55; G 2.19; Y 3.04; D 1.97; W 3.25; K 1.94; S 1.7; E 1.82; T 1.96; C 2.6; H 2.65; R 2.22
V62: E 1.66; D 1.28; A 3.15; Q 1.94; R 1.93; G 1.93; S 2.36; C 2.48; H 1.7; K 1.97; M 2.67; T 3; P 1.22; Y 2.11; I 3.29; W 2.11; N 1.68; L 2.76; F 2.15
G63: S 3.63; A 3.66; Y 3.48; W 3.31; K 3.45; F 3.29; N 3.97; C 3.58; I 3.41; P 2.16; M 3.79; E 4.11; Q 3.47; T 3.77; L 3.36; R 3.54; D 4.19; H 3.72; V 3.42
E59: Y 3.82
L67: V 3.28; S 3.6; N 3.67; E 3.96; D 4.28; Q 3.8; C 3.61; A 3.98; R 3.81; P 3.9; K 3.57; H 3.62; M 3.46; F 3.22; W 3.08; Y 3.08; T 3.3; G 3.49; I 3.3

Variants of: B2
Assay: as above
Settings: PBS, room temperature

Folding stability dG [kcal/mol], by site and new letter:
T1: L 1.37; V 1.86; R 1.35; N 1.19; H 1.44; F 1.73; A 1.41; G 1.37; K 1.28; Q 1.03; P 1.15; D 0.915; S 1.62; M 1.33; E 0.815; I 1.73
